What was measured:
rab4a_human RAB4A [1] = target: rab4a_human RAB4A (UniProt P20338)
rab4a_human RAB4A [2] = target: rab4a_human RAB4A (UniProt P20338); remark: listed apart in the source

rab4a_human RAB4A, sequence (P20338 whole entry): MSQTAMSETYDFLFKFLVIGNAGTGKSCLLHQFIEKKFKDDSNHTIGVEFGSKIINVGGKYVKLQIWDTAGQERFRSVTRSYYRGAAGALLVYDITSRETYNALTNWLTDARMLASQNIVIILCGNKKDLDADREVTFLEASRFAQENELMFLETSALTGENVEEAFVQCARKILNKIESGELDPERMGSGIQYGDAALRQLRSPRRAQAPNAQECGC
Protein NDRG1 (Homo sapiens), Q92597 L146P, sequence (Q92597 whole entry L146P): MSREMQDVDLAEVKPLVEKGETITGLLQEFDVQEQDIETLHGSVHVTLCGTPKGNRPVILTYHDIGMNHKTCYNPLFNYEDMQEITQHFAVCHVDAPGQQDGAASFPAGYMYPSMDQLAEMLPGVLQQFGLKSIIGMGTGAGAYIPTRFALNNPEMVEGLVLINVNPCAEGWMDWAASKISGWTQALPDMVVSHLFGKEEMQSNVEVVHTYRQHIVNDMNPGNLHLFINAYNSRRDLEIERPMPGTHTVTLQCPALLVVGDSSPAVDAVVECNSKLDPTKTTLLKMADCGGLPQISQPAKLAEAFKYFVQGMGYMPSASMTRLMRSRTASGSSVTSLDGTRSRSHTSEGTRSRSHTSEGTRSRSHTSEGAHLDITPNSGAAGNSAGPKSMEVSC
Protein NDRG1 (Homo sapiens), Q92597 R234Q, sequence (Q92597 whole entry R234Q): as the sequence (Q92597 whole entry L146P) above, with P146L, R234Q counted along it

| effect of a mutation on the interaction (rab4a_human RAB4A [1]) | effect of a mutation on the interaction (rab4a_human RAB4A [2]) | Substance |
| --- | --- | --- |
| with no effect | decreasing interaction strength | Protein NDRG1 (Homo sapiens), Q92597 L146P |
| with no effect |  | Protein NDRG1 (Homo sapiens), Q92597 R234Q |

— IntAct's records for PubMed 28776325
